In patent publication US6608174B1, “Radiolabeled vasoactive intestinal peptide analogs for diagnosis and radiotherapy” (Dabur Research Foundation, priority 2000, dated 2003):
Square brackets hold non-standard residues; d marks the D form. Ends that are not written are not given here. dPhe(4-Cl) = N[C@H](Cc1ccc(Cl)cc1)C(=O)O; Aib = CC(C)(N)C(=O)O

Legend:
VIP receptors = experiment: Displacement assay using 125I labeled VIP on human tumor cell lines; type: binding; details: for IC50: inhibition of 125I labeled VIP binding
Procedure: Peptides of the invention were assayed for biological activity in homogeneous competition binding assays using ^125I labeled VIP peptide (SEQ ID NO:1) and in heterogeneous displacement assays using either ^125I labeled VIP (10-28) fragment (Tyr-Thr-Arg-Leu-Arg-Lys-Gln-Met-Ala-Val-Lys-Lys-Tyr-Leu-Asn-Ser-Ile-Leu-Asn-NH2) (SEQ ID NO: 12) or ^125I labeled VIP (SEQ ID NO:1). The assays were performed on a variety of human tumor cell lines.
In the practice of these methods, the peptide was radioiodinated using the iodogen method. Briefly, 5 μg of the peptide in 10 μl of 50 mM PBS (pH 7.5), an appropriate amount of the radioisotope and 50 μg-100 μg iodogen were incubated at room temperature for 15-30 min with occasional mixing. Radioiodinated peptide was purified from unincorporated radioactive iodine by purification on a Sep Pak C18 cartridge, essentially following the same procedure as described for technetium labeling.
Displacement assays were performed at 4-8° C. Briefly, 50,000 cells were plated per well of a 24 well plate and allowed to adhere overnight. Before the assay, the cells were washed twice with ice cold Binding buffer (25 mM HEPES, 10 mM […] MgCl2 and 1% BSA in RPMI 1640 medium). The cells were incubated for 2-3hrs with an appropriate concentration (0.1-10 nM) of ^125I labeled VIP (SEQ ID NO:1) in the presence and absence of the cold ligand (SEQ ID NO: 2) (1 nM-10 μM). The non specific binding was ascertained using 10 μM of VIP. After incubation, the cells were washed thrice with the Binding buffer to remove the unbound peptide. The cells were lysed and counts were measured in a Gamma counter. From a comparison of the extent of binding in the presence or absence of the unlabeled peptide, a concentration was determined corresponding to inhibition of ^125I labeled VIP binding by 50%. Different tumor cell lines were assayed using the above described displacement assay: HT29 (human colorectal adenocarcinoma); PTC (human primary tumor cells adenocarcinoma); KB (human squamous cell carcinoma); 4451 (human squamous cell carcinoma); L132 (human lung carcinoma); A549 (human lung carcinoma); HBL100 (human breast carcinoma) and PA1 (human ovarian carcinoma). Cells were grown in RPMI 1640 supplemented with 10% fetal calf serum, glutamine and antibiotics using standard cell culture techniques (see Animal Cell Culture: A Practical Approach, Freshney, ed, IRL press: Oxford, UK, 1992).

[1] = target: high affinity (nM range), low surface expression receptor on human tumor cells (VIP receptor) (human); experiment: maximal binding, 125I-SEQ ID NO:2 on KB cells
[2] = target: low affinity (µM range), high surface expression receptor on human tumor cells (VIP receptor) (human); experiment: maximal binding, 125I-SEQ ID NO:2 on KB cells
[3] = target: VIP receptors on human tumor cell lines (human); experiment: displacement of 125I labeled VIP on PA1 cells
[4] = target: VIP receptors on human tumor cell lines (human); experiment: displacement of 125I labeled VIP on A549 cells
[5] = target: VIP receptors on human tumor cell lines (human); experiment: displacement of 125I labeled VIP on L132 cells
[6] = target: high affinity (nM range), low surface expression receptor on human tumor cells (VIP receptor) (human); experiment: maximal binding, 125I-SEQ ID NO:2 on A549 cells
[7] = target: low affinity (µM range), high surface expression receptor on human tumor cells (VIP receptor) (human); experiment: maximal binding, 125I-SEQ ID NO:2 on A549 cells
[8] = target: high affinity (nM range), low surface expression receptor on human tumor cells (VIP receptor) (human); experiment: maximal binding, 125I-SEQ ID NO:2 on L132 cells
[9] = target: low affinity (µM range), high surface expression receptor on human tumor cells (VIP receptor) (human); experiment: maximal binding, 125I-SEQ ID NO:2 on L132 cells
[10] = target: high affinity (nM range), low surface expression receptor on human tumor cells (VIP receptor) (human); experiment: maximal binding, 125I-SEQ ID NO:2 on HBL 100 cells
[11] = target: low affinity (µM range), high surface expression receptor on human tumor cells (VIP receptor) (human); experiment: maximal binding, 125I-SEQ ID NO:2 on HBL 100 cells
[12] = target: VIP receptors on human tumor cell lines (human); experiment: displacement of 125I labeled VIP (10-28) fragment on KB cells
[13] = target: VIP receptors on human tumor cell lines (human); experiment: displacement of 125I labeled VIP (10-28) fragment on PA1 cells
[14] = target: VIP receptors on human tumor cell lines (human); experiment: displacement of 125I labeled VIP (10-28) fragment on 4451 cells
[15] = target: VIP receptors on human tumor cell lines (human); experiment: displacement of 125I labeled VIP (10-28) fragment on A549 cells
[16] = target: VIP receptors on human tumor cell lines (human); experiment: displacement of 125I labeled VIP (10-28) fragment on HT29 cells
[17] = target: VIP receptors on human tumor cell lines (human); experiment: displacement of 125I labeled VIP (10-28) fragment on L132 cells
[18] = target: high affinity (nM range), low surface expression receptor on human tumor cells (VIP receptor) (human); experiment: homologous radioligand competition, 125I-SEQ ID NO:2 on PTC cells
[19] = target: low affinity (µM range), high surface expression receptor on human tumor cells (VIP receptor) (human); experiment: as above
[20] = target: high affinity (nM range), low surface expression receptor on human tumor cells (VIP receptor) (human); experiment: homologous radioligand competition, 125I-SEQ ID NO:2 on L132 cells
[21] = target: low affinity (µM range), high surface expression receptor on human tumor cells (VIP receptor) (human); experiment: as above
[22] = target: VIP receptors on human tumor cell lines (human); experiment: displacement of 125I labeled VIP (10-28) fragment on HBL 100 cells

## His-Ser-Asp-Aib-Val-4-Cl-D-Phe-Thr-Asp-Asn-Tyr-Thr-Arg-Leu-Arg-Lys-Gln-Leu-Ala-Val-Lys-Lys-Tyr-Leu-Asn-Ser-Ile-Leu-Asn-NH2 (HSD[Aib]V[dPhe(4-Cl)]TDNYTRLRKQLAVKKYLNSILN-NH2; N-terminus assumed; SMILES CC[C@H](C)[C@H](NC(=O)[C@H](CO)NC(=O)[C@H](CC(N)=O)NC(=O)[C@H](CC(C)C)NC(=O)[C@H](Cc1ccc(O)cc1)NC(=O)[C@H](CCCCN)NC(=O)[C@H](CCCCN)NC(=O)[C@@H](NC(=O)[C@H](C)NC(=O)[C@H](CC(C)C)NC(=O)[C@H](CCC(N)=O)NC(=O)[C@H](CCCCN)NC(=O)[C@H](CCCNC(=N)N)NC(=O)[C@H](CC(C)C)NC(=O)[C@H](CCCNC(=N)N)NC(=O)[C@@H](NC(=O)[C@H](Cc1ccc(O)cc1)NC(=O)[C@H](CC(N)=O)NC(=O)[C@H](CC(=O)O)NC(=O)[C@@H](NC(=O)[C@@H](Cc1ccc(Cl)cc1)NC(=O)[C@@H](NC(=O)C(C)(C)NC(=O)[C@H](CC(=O)O)NC(=O)[C@H](CO)NC(=O)[C@@H](N)Cc1c[nH]cn1)C(C)C)[C@@H](C)O)[C@@H](C)O)C(C)C)C(=O)N[C@@H](CC(C)C)C(=O)N[C@@H](CC(N)=O)C(N)=O) [SEQ ID NO:2, VIP receptor antagonist, preferred peptide (Xxx = Aib)]
VIP receptors; 4451 cells
  IC50: 7.1 nM
VIP receptors; A549 cells
  IC50: 4.3 nM
VIP receptors; HBL 100 cells
  IC50: 5.41 nM
VIP receptors; HT29 cells
  IC50: 2.78 nM
VIP receptors; KB cells
  IC50: 6.2 nM
VIP receptors; L132 cells
  IC50: 6.8 nM
VIP receptors; PA1 cells
  IC50: 7.6 nM
VIP receptors; PTC cells
  IC50: 2.53 nM
VIP receptors; all cell lines of Table IV
  displacement of binding of radiolabelled VIP to the cell lines: significantly displace

## HSD[Aib]V[dPhe(4-Cl)]TDNYTRLRKQLAVKKYLNSILN-NH2 (also: 125I-labelled form (iodogen) used as tracer)
[1]
  Bmax1: 602 pM
[2]
  Bmax2: 42.9 nM
[3]
  IC50: 7.6 nM
[4]
  IC50: 4.3 nM
[5]
  IC50: 6.8 nM
[6]
  Bmax1: 540 pM
[7]
  Bmax2: 48.3 nM
[8]
  Bmax1: 306 pM
[9]
  Bmax2: 45.8 nM
[10]
  Bmax1: 697 pM
[11]
  Bmax2: 69.1 nM
[12]
  IC50: 0.35 nM
[13]
  IC50: 0.31 nM
[14]
  IC50: 0.383 nM
[15]
  IC50: 0.275 nM
[16]
  IC50: 0.22 nM
[17]
  IC50: 0.228 nM
[18]
  Kd: 1.77 nM
[19]
  Kd: 1180 nM
[20]
  Kd: 2.6 nM
[21]
  Kd: 1030 nM
[22]
  IC50: 0.236 nM
